Test results as given in article doi:10.1101/2021.06.01.446590 (bioRxiv, 2021).

B1: Miro1^181-579 (soluble construct of Miro1 containing the EF1-EF2-G2 domains) (domain or fragment, human, UniProt Q8IXI2 181-579, looked up)
chain: MKPACIKALTRIFKISDQDNDGTLNDAELNFFQRICFNTPLAPQALEDVKNVVRKHISDGVADSGLTLKGFLFLHTLFIQRGRHETTWTVLRRFGYDDDLDLTPEYLFPLLKIPPDCTTELNHHAYLFLQSTFDKHDLDRDCALSPDELKDLFKVFPYIPWGPDVNNTVCTNERGWITYQGFLSQWTLTTYLDVQRCLEYLGYLGYSILTEQESQASAVTVTRDKKIDLQKKQTQRNVFRCNVIGVKNCGKSGVLQALLGRNLMRQKKIREDHKSYYAINTVYVYGQEKYLLLHDISESEFLTEAEIICDVVCLVYDVSNPKSFEYCARIFKQHFMDSRIPCLIVAAKSDLHEVKQEYSISPTDFCRKHKMPPPQAFTCNTADAPSKDIFVKLTTMAMY
B2: human CISD1 (residues 32-108) (domain or fragment, UniProt Q9NZ45 32-108, looked up)
chain: KRFYVKDHRNKAMINLHIQKDNPKIVHAFDMEDLGDKAVYCRCWRSKKFPFCDGAHTKHNEETGDNVGPLIIKKKET

Assays:
His6-Smt3-Parkin = His6-Smt3-Parkin (human, UniProt O60260 1-465, RED-tris-NTA dye bound to the His6 tag); experiment: MST
Chain of His6-Smt3-Parkin (O60260 whole entry): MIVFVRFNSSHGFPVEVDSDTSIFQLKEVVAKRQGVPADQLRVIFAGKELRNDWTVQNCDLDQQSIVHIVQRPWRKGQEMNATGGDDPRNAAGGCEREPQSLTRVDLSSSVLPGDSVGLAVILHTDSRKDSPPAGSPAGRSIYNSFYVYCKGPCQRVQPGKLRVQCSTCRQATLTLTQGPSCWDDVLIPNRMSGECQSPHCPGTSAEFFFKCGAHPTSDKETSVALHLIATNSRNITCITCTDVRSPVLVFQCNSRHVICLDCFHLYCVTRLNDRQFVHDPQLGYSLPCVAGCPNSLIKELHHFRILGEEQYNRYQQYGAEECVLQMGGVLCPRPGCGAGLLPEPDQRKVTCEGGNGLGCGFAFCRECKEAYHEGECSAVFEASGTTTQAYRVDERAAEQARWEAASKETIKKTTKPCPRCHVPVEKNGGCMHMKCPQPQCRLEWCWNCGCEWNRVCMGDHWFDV

[1] = target: human parkin, full-length (human, UniProt O60260 1-465); experiment: ITC
Chain of human parkin, full-length (O60260 whole entry): as above

Binder | Kd (His6-Smt3-Parkin) [µM] | Kd [1] [µM]
B1 | > 100 | –
B2 | – | > 100
